Test results: US20240182536A1 (MURAL ONCOLOGY, published 2024)
Positions count from the first letter of the chain named. Names may count otherwise.

T1: IL-18 receptors on HEK-Blue IL-18 reporter cells (UniProt Q13478 19-541; O95256 20-599, limits assumed)
T1 sequence (looked up) 1: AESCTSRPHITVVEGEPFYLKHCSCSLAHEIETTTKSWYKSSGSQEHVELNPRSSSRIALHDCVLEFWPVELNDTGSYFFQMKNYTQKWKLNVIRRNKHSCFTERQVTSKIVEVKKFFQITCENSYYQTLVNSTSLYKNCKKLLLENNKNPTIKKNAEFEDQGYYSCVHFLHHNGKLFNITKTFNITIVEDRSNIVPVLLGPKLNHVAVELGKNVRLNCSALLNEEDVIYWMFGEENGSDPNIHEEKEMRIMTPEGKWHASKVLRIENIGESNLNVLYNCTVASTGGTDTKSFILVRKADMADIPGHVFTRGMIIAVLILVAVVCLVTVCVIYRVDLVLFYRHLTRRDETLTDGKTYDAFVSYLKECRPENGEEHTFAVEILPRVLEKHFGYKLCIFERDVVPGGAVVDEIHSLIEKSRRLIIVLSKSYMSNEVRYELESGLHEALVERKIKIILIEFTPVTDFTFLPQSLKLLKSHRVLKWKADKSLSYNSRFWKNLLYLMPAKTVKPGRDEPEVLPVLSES
T1 sequence (looked up) 2: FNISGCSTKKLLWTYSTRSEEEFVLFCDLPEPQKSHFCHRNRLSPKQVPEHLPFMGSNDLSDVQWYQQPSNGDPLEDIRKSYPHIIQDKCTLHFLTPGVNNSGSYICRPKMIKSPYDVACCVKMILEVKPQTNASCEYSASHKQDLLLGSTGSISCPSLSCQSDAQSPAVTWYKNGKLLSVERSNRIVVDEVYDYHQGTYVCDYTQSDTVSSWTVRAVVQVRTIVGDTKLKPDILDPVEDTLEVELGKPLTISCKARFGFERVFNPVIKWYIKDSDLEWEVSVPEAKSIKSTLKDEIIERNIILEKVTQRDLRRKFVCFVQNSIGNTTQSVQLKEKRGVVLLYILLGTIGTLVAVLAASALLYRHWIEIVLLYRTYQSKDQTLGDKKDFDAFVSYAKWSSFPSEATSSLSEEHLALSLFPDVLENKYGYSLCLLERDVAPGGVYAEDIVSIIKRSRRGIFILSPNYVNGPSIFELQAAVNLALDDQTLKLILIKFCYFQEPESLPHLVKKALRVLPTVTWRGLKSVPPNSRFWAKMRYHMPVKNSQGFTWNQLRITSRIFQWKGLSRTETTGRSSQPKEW

T2: interleukin 18 binding protein (IL-18BP) (UniProt O95998 31-194)
T2 sequence (looked up): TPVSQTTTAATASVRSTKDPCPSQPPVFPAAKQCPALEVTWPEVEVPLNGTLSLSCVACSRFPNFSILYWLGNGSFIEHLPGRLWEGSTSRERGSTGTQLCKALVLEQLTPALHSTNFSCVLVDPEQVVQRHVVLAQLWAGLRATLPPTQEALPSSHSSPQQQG

B1: IL-18 variant S7Y, K53H, S55M (ligand)
chain: YFGKLEYKLSVIRNLNDQVLFIDQGNRPLFEDMTDSDMRDNAPRTIFIISMYHDMQPRGMAVTISVKSEKISTLSSENKIISFKEMNPPDNIKDTKSDIIFFQRSVPGHDNKMQFESSSYEGYFLASEKERDLFKLILKKEDELGDRSIMFTVQNED
B2: IL-18 variant K53Y, S55Y, Q56H (ligand)
chain: B1 chain with Y7S, H53Y, M55Y, Q56H
B3: IL-18 variant K53Y, S55V (ligand)
chain: B1 chain with Y7S, H53Y, M55V
B4: IL-18 variant K53N, S55A, R104N, P107A, H109Y (ligand)
chain: B1 chain with Y7S, H53N, M55A, R104N, P107A, H109Y
B5: IL-18 variant K53N, S55Y (ligand)
chain: B1 chain with Y7S, H53N, M55Y
B6: IL-18 variant K53S, S55Y, P107M (ligand)
chain: B1 chain with Y7S, H53S, M55Y, P107M
B7: IL-18 variant K53H, S55H (ligand)
chain: B1 chain with Y7S, M55H
B8: IL-18 variant K53G, S55P, R104K, H109Y (ligand)
chain: B1 chain with Y7S, H53G, M55P, R104K, H109Y
B9: IL-18 variant L9V, K53H, S55M (ligand)
chain: B1 chain with Y7S, L9V
B10: IL-18 variant S36E, D37E, D40R, N41G, K53Y, S55F (ligand)
chain: B1 chain with Y7S, S36E, D37E, D40R, N41G, H53Y, M55F
B11: IL-18 variant K53D, S55Q, P107M (ligand)
chain: B1 chain with Y7S, H53D, M55Q, P107M
B12: IL-18 variant K53V, S55Q (ligand)
chain: B1 chain with Y7S, H53V, M55Q
B13: IL-18 variant K53H, S55I (ligand)
chain: B1 chain with Y7S, M55I

The binders below were run against T1, IL-18 receptors on HEK-Blue IL-18 … (assay: cell-based or functional assay).

First: B1
Second: B2
The “HEK-Blue activity, No BP, DF-10000” value of the first is higher: 0.21 for the first, 0.16 for the second.

Going from B3 to B4, the “HEK-Blue activity, No BP, DF-10000” value rises from 0.16 to 0.21.

First: B5
Second: B6
The “HEK-Blue activity, No BP, DF-10000” value of the first is higher: 0.16 for the first, 0.15 for the second.

First: B7
Second: B8
The “HEK-Blue activity, No BP, DF-10000” value of the first is lower: 0.15 for the first, 0.21 for the second.

Compared with B9, B10 is higher in “HEK-Blue activity, No BP, DF-10000” value: 0.15 for the first, 0.2 for the second.

First: B11
Second: B12
The “HEK-Blue activity, No BP, DF-10000” value of the first is lower: 0.19 for the first, 0.2 for the second.

With B13 the “HEK-Blue activity, No BP, DF-10000” value was 0.14.

Going from B1 to B2, the “HEK-Blue activity, No BP, DF-100,000” value rises from 0.14 to 0.15.

First: B3
Second: B4
The “HEK-Blue activity, No BP, DF-100,000” value of the first is higher: 0.2 for the first, 0.13 for the second.

First: B5
Second: B6
The “HEK-Blue activity, No BP, DF-100,000” value of the first is lower: 0.09 for the first, 0.11 for the second.

Compared with B7, B8 is higher in “HEK-Blue activity, No BP, DF-100,000” value: 0.1 for the first, 0.12 for the second.

Compared with B9, B10 is higher in “HEK-Blue activity, No BP, DF-100,000” value: 0.1 for the first, 0.12 for the second.

Compared with B11, B12 is higher in “HEK-Blue activity, No BP, DF-100,000” value: 0.13 for the first, 0.14 for the second.

With B13 the “HEK-Blue activity, No BP, DF-100,000” value was 0.1.

Going from B1 to B2, the “HEK-Blue activity, No BP, DF-1,000,000” value falls from 0.18 to 0.14.

Compared with B3, B4 is lower in “HEK-Blue activity, No BP, DF-1,000,000” value: 0.16 for the first, 0.13 for the second.

Going from B5 to B6, the “HEK-Blue activity, No BP, DF-1,000,000” value rises from 0.08 to 0.12.

Compared with B7, B8 is higher in “HEK-Blue activity, No BP, DF-1,000,000” value: 0.08 for the first, 0.1 for the second.

Going from B9 to B10, the “HEK-Blue activity, No BP, DF-1,000,000” value rises from 0.11 to 0.14.

Going from B11 to B12, the “HEK-Blue activity, No BP, DF-1,000,000” value falls from 0.13 to 0.11.

For B13, the “HEK-Blue activity, No BP, DF-1,000,000” value was 0.09.

The binders below were run against T2, interleukin 18 binding protein (IL-18BP) (assay: cell-based or functional assay).

First: B1
Second: B2
The “HEK-Blue activity, +100 nM BP, DF-10000” value of the first is lower: 0.16 for the first, 0.22 for the second.

Compared with B3, B4 is lower in “HEK-Blue activity, +100 nM BP, DF-10000” value: 0.16 for the first, 0.13 for the second.

Compared with B5, B6 is higher in “HEK-Blue activity, +100 nM BP, DF-10000” value: 0.14 for the first, 0.19 for the second.

First: B7
Second: B8
The “HEK-Blue activity, +100 nM BP, DF-10000” value of the first is higher: 0.15 for the first, 0.12 for the second.

B9 and B10 are the same in “HEK-Blue activity, +100 nM BP, DF-10000” value: 0.16 for the first, 0.16 for the second.

Going from B11 to B12, the “HEK-Blue activity, +100 nM BP, DF-10000” value falls from 0.22 to 0.2.

B13 was tested, and the “HEK-Blue activity, +100 nM BP, DF-10000” value was 0.16.

Going from B1 to B2, the “HEK-Blue activity, +100 nM BP, DF-100,000” value rises from 0.15 to 0.2.

First: B3
Second: B4
The “HEK-Blue activity, +100 nM BP, DF-100,000” value of the first is higher: 0.14 for the first, 0.12 for the second.

First: B5
Second: B6
The “HEK-Blue activity, +100 nM BP, DF-100,000” value of the first is lower: 0.09 for the first, 0.14 for the second.

Compared with B7, B8 is lower in “HEK-Blue activity, +100 nM BP, DF-100,000” value: 0.1 for the first, 0.09 for the second.

Going from B9 to B10, the “HEK-Blue activity, +100 nM BP, DF-100,000” value rises from 0.1 to 0.19.

Compared with B11, B12 is higher in “HEK-Blue activity, +100 nM BP, DF-100,000” value: 0.14 for the first, 0.17 for the second.

For B13, the “HEK-Blue activity, +100 nM BP, DF-100,000” value was 0.11.

Compared with B1, B2 is higher in “HEK-Blue activity, +100 nM BP, DF-1,000,000” value: 0.18 for the first, 0.19 for the second.

Compared with B3, B4 is higher in “HEK-Blue activity, +100 nM BP, DF-1,000,000” value: 0.13 for the first, 0.14 for the second.

Going from B5 to B6, the “HEK-Blue activity, +100 nM BP, DF-1,000,000” value rises from 0.09 to 0.18.

B7 and B8 are the same in “HEK-Blue activity, +100 nM BP, DF-1,000,000” value: 0.09 for the first, 0.09 for the second.

B9 and B10 are the same in “HEK-Blue activity, +100 nM BP, DF-1,000,000” value: 0.14 for the first, 0.14 for the second.

B11 and B12 are the same in “HEK-Blue activity, +100 nM BP, DF-1,000,000” value: 0.13 for the first, 0.13 for the second.

For B13, the “HEK-Blue activity, +100 nM BP, DF-1,000,000” value was 0.1.

Compared with B1, B2 is lower in “Ratio (-BP/+BP), DF-10000” value: 1.33 for the first, 0.73 for the second.

First: B3
Second: B4
The “Ratio (-BP/+BP), DF-10000” value of the first is lower: 1.03 for the first, 1.64 for the second.

First: B5
Second: B6
The “Ratio (-BP/+BP), DF-10000” value of the first is higher: 1.11 for the first, 0.82 for the second.

Compared with B7, B8 is higher in “Ratio (-BP/+BP), DF-10000” value: 1.01 for the first, 1.72 for the second.

Going from B9 to B10, the “Ratio (-BP/+BP), DF-10000” value rises from 0.94 to 1.19.

Going from B11 to B12, the “Ratio (-BP/+BP), DF-10000” value rises from 0.85 to 1.

For B13, the “Ratio (-BP/+BP), DF-10000” value was 0.92.

Compared with B1, B2 is lower in “Ratio (-BP/+BP), DF-100,000” value: 0.94 for the first, 0.76 for the second.

Going from B3 to B4, the “Ratio (-BP/+BP), DF-100,000” value falls from 1.44 to 1.1.

Compared with B5, B6 is lower in “Ratio (-BP/+BP), DF-100,000” value: 1.02 for the first, 0.76 for the second.

Going from B7 to B8, the “Ratio (-BP/+BP), DF-100,000” value rises from 0.99 to 1.3.

Compared with B9, B10 is lower in “Ratio (-BP/+BP), DF-100,000” value: 1.01 for the first, 0.64 for the second.

Going from B11 to B12, the “Ratio (-BP/+BP), DF-100,000” value falls from 0.97 to 0.81.

In the case of B13, the “Ratio (-BP/+BP), DF-100,000” value is reported as 0.9.

Going from B1 to B2, the “Ratio (-BP/+BP), DF-1,000,000” value falls from 0.98 to 0.73.

Compared with B3, B4 is lower in “Ratio (-BP/+BP), DF-1,000,000” value: 1.27 for the first, 0.93 for the second.

Going from B5 to B6, the “Ratio (-BP/+BP), DF-1,000,000” value falls from 0.96 to 0.69.

Compared with B7, B8 is higher in “Ratio (-BP/+BP), DF-1,000,000” value: 0.96 for the first, 1.2 for the second.

First: B9
Second: B10
The “Ratio (-BP/+BP), DF-1,000,000” value of the first is lower: 0.78 for the first, 1.06 for the second.

Compared with B11, B12 is lower in “Ratio (-BP/+BP), DF-1,000,000” value: 1.02 for the first, 0.88 for the second.

In the case of B13, the “Ratio (-BP/+BP), DF-1,000,000” value is reported as 0.89.
